# Assay results taken from patent US20140274766A1, “METHODS OF USING F-SPONDIN AS A BIOMARKER FOR CARTILAGE DEGENERATIVE CONDITIONS AND BONE DISEASES” (priority 2009, published 2014).
# Columns and labels:
# chick chondrocytes = assay: Alkaline phosphatase (AP) activity in RA-stimulated chick chondrocyte cultures; format: cell-based; conditions: F-Spondin 1 ug/ml with RA, 3 days
# Experimental: FIG. 16. Inhibition of F-spondin decreases AP activity in RA stimulated cultures. Chick chondrocytes were treated with RA at 100 nm for 5 days with and without F-spondin antibodies and AP activity assessed. Antibodies with specificities to the spondin domain (medium grey) and TSR domain (black) inhibited AP activity compared to ctrl (noAb) (light grey). Note the greater inhibitory effect of the TSR domain antibody. * p=<0.05 versus no ab ctrl.
# FIG. 17. The pro-maturation effect of F-spondin is not inhibited following neutralization of TGF-β activity by coculture with Latency Associated Peptide (LAP). AP activity was determined in chick chondrocyte cultures by ELISA following RA stimulation for 3 days. Cultures were either ctrl (RA only) or RA with either F-Spondin (1 ug/ml) or LAP (10 or 100 ng/ml), or RA with F-Spondin (1 ug/ml) and LAP (10 or 100 ng/ml) in combination.
# FIG. 18. Blocking αvβ3 integrin inhibits the promaturation effect of F-spondin. Chondocyte cultures were transfected as previously and stimulated with RA for 3 days in the presence of IgG control, or αvβ3 blocking antibodies prior to assay for AP activity. Inhibition of αvβ3 led to a ˜50% suppression of F-spondin-induced AP activity but had no effect on baseline AP activity (vector ctrl).
# FIGS. 23A, 23B and 23C. F-spondin regulation of chondrocyte maturation requires the TSR domain. (A) Schematic representation of F-spondin protein domains and plasmid constructs encoding either full length (FS1) or TSR domain truncated (FS6) cDNAs. (B) Relative AP activity of FS or pcDNA3 control transfected cultures after 5 days treatment. (C) Relative AP activity following inhibition of F-spondin protein domains. Upper sternal chondrocytes were stimulated with 0, 10, 35 or 100 nM retinoic acid (RA) for 5 days in culture. […]
# We next determined that the pro-maturation effect of F-spondin is not inhibited following neutralization of TGF-β activity by coculture with Latency Associated Peptide (LAP) (R&D Systems, Cat No 246-LP/CF). […] AP activity was determined in chick chondrocyte cultures by ELISA following RA stimulation for 3 days. […]
# human chondrocytes = assay: PGE2 production by human chondrocytes (RIA), F-spondin supernatant and blocking antibodies; format: cell-based; conditions: supernatants from F-spondin transfected cells, 24 h, vs control vector supernatants
# Experimental: FIG. 11: Blocking of F-spondin function by antibody: Human chondrocytes were grown in monolayer culture. The cells were adapted to serum free medium conditions for 24 h before treating with either F-spondin transfected supernatant (150 uL), LM609 (αvβ3) or R1 (F-spondin blocking antibody) for 24 h and the culture supernatant was collected for PGE2 estimation by RIA. The data is representative of one of the three experiments. F-spondin induced production of PGE2 was inhibited by R1 (TSR 3-6 blocking antibody).
# F-spondin consists of reelin, spondin and six TSR domains; these domains may activate various cellular functions by binding to different receptors. Previously, Terai et al (2001) have shown that F-spondin inhibits angiogenesis in endothelial cells by binding to αvβ3 (Terai Y, Abe M, Miyamoto K, Koike M, Yamasaki M, Ueda M, et al. Vascular smooth muscle cell growth-promoting factor/F-spondin inhibits angiogenesis via the blockade of integrin alphavbeta3 on vascular endothelial cells. J Cell Physiol 2001; 188(3):394-402). […] Accordingly, human chondrocytes were incubated with the supernatant from F-spondin transfected cell culture for 24 h and the levels of PGE2 were measured under various conditions (FIG. 11). […]
# [1] = tested on: latent TGF-β1 in OA cartilage explants; assay: Activation of latent TGF-β1 in OA cartilage explant cultures (ELISA); format: cell-based, human; conditions: F-spondin 1 μg/ml, 24 h
# Experimental: FIG. 12: Activation of Latent TGF-β1 by exogenous addition of F-spondin in OA cartilage explant cultures: Human OA cartilage was grown as explant cultures in serum free Ham'F-12 medium. All the conditions were done in triplicate. To the cartilage explants recombinant human F-spondin (1 ug/ml) or IL-1 (1 ng/ml) were added and supernatants were collected after 24 h. Both active and total TGF-β1 was estimated. Addition of F-spondin increased the levels of active TGF-β1 observed in explants cultures without significant increase in total latent TGF-β1 secretion.
# The effect of F-spondin on latent TGF-β1 activation in OA cartilage explant cultures was studied by ELISA (R&D systems). Unstimulated OA cartilage explants spontaneously released both latent TGF-β1 (˜11 ng/g cartilage) and active TGF-β1 (200 pg/g cartilage) in culture supernatants (FIG. 12).
molecule,measurement,setting,value
"F-spondin: 110 kDa, secreted, heparin-binding extracellular matrix glycoprotein; used as recombinant protein (R&D systems) or transfected-cell supernatant (protein, UniProt Q9HCB6 29-807, looked up) Spondin-1: FSDETLDKVPKSEGYCSRILRAQGTRREGYTEFSLRVEGDPDFYKPGTSYRVTLSAAPPSYFRGFTLIALRENREGDKEEDHAGTFQIIDEEETQFMSNCPVAVTESTPRRRTRIQVFWIAPPAGTGCVILKASIVQKRIIYFQDEGSLTKKLCEQDSTFDGVTDKPILDCCACGTAKYRLTFYGNWSEKTHPKDYPRRANHWSAIIGGSHSKNYVLWEYGGYASEGVKQVAELGSPVKMEEEIRQQSDEVLTVIKAKAQWPAWQPLNVRAAPSAEFSVDRTRHLMSFLTMMGPSPDWNVGLSAEDLCTKECGWVQKVVQDLIPWDAGTDSGVTYESPNKPTIPQEKIRPLTSLDHPQSPFYDPEGGSITQVARVVIERIARKGEQCNIVPDNVDDIVADLAPEEKDEDDTPETCIYSNWSPWSACSSSTCDKGKRMRQRMLKAQLDLSVPCPDTQDFQPCMGPGCSDEDGSTCTMSEWITWSPCSISCGMGMRSRERYVKQFPEDGSVCTLPTEETEKCTVNEECSPSSCLMTEWGEWDECSATCGMGMKKRHRMIKMNPADGSMCKAETSQAEKCMMPECHTIPCLLSPWSEWSDCSVTCGKGMRTRQRMLKSLAELGDCNEDLEQVEKCMLPECPIDCELTEWSQWSECNKSCGKGHVIRTRMIQMEPQFGGAPCPETVQRKKCRIRKCLRNPSIQKLRWREARESRRSEQLKEESEGEQFPGCRMRPWTAWSECTKLCGGGIQERYMTVKKRFKSSQFTSCKDKKEIRACNVHPC",AP activity,chick chondrocytes,increase
same,PGE2 production,human chondrocytes,significantly increased
same,increase of active TGF-β1,[1],225%
same,total latent TGF-β1 synthesis,[1],without significant changes
same,active TGF-β1 in culture supernatants,[1]; unstimulated 200 pg/g cartilage,550 pg/g cartilage
